Numbering of substitutions follows the chain as printed.
Assays:
Settings in all cases: nanopore translocation; background mutations not given
[1] = target: T1, Dda 1993 C114T C114T (Enterobacteria phage T4) (UniProt P32270)
T1 sequence: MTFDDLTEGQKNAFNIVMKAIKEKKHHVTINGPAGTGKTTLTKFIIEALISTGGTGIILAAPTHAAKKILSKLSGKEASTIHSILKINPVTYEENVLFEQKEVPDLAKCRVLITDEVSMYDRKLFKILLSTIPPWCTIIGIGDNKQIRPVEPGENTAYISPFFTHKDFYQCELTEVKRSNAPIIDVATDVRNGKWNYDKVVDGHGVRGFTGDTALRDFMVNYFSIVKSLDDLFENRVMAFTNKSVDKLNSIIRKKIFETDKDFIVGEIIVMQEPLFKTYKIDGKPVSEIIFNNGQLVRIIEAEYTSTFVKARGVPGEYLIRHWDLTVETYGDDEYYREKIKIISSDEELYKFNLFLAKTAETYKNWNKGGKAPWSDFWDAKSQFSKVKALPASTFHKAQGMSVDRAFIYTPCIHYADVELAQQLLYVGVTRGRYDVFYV

[2] = target: T2, Dda 1993 C114G C114G (Enterobacteria phage T4) (UniProt P32270)
T2 sequence: T1 sequence with T114G

[3] = target: T3, Dda 1993 C114L C114L (Enterobacteria phage T4) (UniProt P32270)
T3 sequence: T1 sequence with T114L

[4] = target: T4, Dda 1993 C114A C114A (Enterobacteria phage T4) (UniProt P32270)
T4 sequence: T1 sequence with T114A

[5] = target: T5, Dda 1993 K177F K177F (Enterobacteria phage T4) (UniProt P32270)
T5 sequence: T1 sequence with T114C, K177F

[6] = target: T6, Dda 1993 K177R K177R (Enterobacteria phage T4) (UniProt P32270)
T6 sequence: T1 sequence with T114C, K177R

“barcoded 3.6 kb DNA analyte ligated to sequencing Y adaptor” gave an activity (bps speed delta vs control) [1] of -35.7, an activity (bps speed delta vs control) [2] of -11.3 and an activity (bps speed delta vs control) [3] of -42. The activity (bps speed delta vs control) [4] was 13.8, the activity (bps speed delta vs control) [5] was -33.4 and the activity (bps speed delta vs control) [6] was 21.7.

Source: US20250382602
